How the values were obtained:
[1] = biological target: GFAP purified from human brain (human) (UniProt P14136); test: chemiluminescent sandwich ELISA; GFAP-2 capture, HRP-GFAP-6 detection; GFAP standard 640 pg/ml
[2] = biological target: GFAP purified from human brain (human) (UniProt P14136); test: chemiluminescent sandwich ELISA; GFAP-2 capture, HRP-GFAP-6 detection; GFAP standard 20 pg/ml
[3] = biological target: GFAP purified from human brain (human) (UniProt P14136); test: chemiluminescent sandwich ELISA; GFAP-2 capture, HRP-GFAP-6 detection; GFAP standard 10 pg/ml
[4] = biological target: GFAP purified from human brain (human) (UniProt P14136); test: chemiluminescent sandwich ELISA; GFAP-2 capture, HRP-GFAP-6 detection; GFAP standard 40 pg/ml
[5] = biological target: GFAP purified from human brain (human) (UniProt P14136); test: chemiluminescent sandwich ELISA; GFAP-2 capture, HRP-GFAP-6 detection; GFAP standard 80 pg/ml
[6] = biological target: GFAP purified from human brain (human) (UniProt P14136); test: chemiluminescent sandwich ELISA; GFAP-2 capture, HRP-GFAP-6 detection; GFAP standard 160 pg/ml
[7] = biological target: GFAP purified from human brain (human) (UniProt P14136); test: chemiluminescent sandwich ELISA; GFAP-2 capture, HRP-GFAP-6 detection; GFAP standard 320 pg/ml

Sequence of GFAP purified from human brain (human) (P14136 whole entry): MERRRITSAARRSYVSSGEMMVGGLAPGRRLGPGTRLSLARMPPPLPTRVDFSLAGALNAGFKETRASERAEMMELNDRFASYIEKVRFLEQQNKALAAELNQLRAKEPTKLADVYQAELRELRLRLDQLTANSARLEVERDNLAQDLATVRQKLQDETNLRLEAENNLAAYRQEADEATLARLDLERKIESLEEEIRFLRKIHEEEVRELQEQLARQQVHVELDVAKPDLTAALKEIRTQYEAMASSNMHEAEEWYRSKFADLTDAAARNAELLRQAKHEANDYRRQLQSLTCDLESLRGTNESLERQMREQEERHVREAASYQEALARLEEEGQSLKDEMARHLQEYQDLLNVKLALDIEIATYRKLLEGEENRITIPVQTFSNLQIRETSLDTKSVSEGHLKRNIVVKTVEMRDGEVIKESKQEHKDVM

B1: GFAP-6 (antibody, V domains shown)
VH: EVQLQQSGAEFVKPGASVKLSCTASGFNIKDTDMHWVRQRPEQGLESIGLIDPAIGNTKYDPKFQGKATITADTSSNAAYLQLSSLTSEDTAVYYCARSDRYLAWFAYWGQGTLVTVSA
VL: DIVMTQSPATLSVTPGDRVSLSCRASQSISDFLHWYQQKSHGSPRLLIKYSSQSISGIPSRFSGSGSGSDFTLSINSVEPEDVGVYYCQNGHTFPYTFGGGTKLEIK
Relative Light Unit (rlu) [1]: 1.12e+06 rlu
Relative Light Unit (rlu) [2]: 7420 rlu
Relative Light Unit (rlu) [3]: 3640 rlu
Relative Light Unit (rlu) [4]: 22700 rlu
Relative Light Unit (rlu) [5]: 72700 rlu
Relative Light Unit (rlu) [6]: 208000 rlu
Relative Light Unit (rlu) [7]: 487000 rlu

— patent US20210347914A1
